In the assay the target is T1, mast cell carboxypeptidase purified from human skin (human, UniProt P15088 110-417).
T1 construct: also called human skin carboxypeptidase; carboxypeptidase purified from skin
T1 sequence (looked up): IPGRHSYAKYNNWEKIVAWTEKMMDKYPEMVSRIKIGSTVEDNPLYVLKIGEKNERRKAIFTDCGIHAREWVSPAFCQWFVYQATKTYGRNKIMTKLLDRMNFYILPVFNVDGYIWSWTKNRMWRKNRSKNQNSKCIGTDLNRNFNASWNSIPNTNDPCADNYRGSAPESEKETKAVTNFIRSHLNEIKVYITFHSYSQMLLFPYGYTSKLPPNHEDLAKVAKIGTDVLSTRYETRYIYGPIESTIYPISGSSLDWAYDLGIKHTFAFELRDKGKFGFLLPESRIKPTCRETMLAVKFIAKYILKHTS
Nature of the assay: affinity chromatography on PCI-agarose. As for the experimental part:
Mast cell carboxypeptidase was purified from finely chopped extracts of human skin (obtained from macroscopically normal tissue at leg amputation) using a method adapted from that of Goldstein et al. (1989, ibid). […] After washing the column, carboxypeptidase was eluted with unconjugated PCI and dialysed to remove the inhibitor. The purity of the enzyme preparation was assessed by SDS-PAGE and silver staining (Pierce, Rockford, Ill., USA). Proteolytic activity was determined by monitoring the cleavage of […] hippuryl-Phe-Arg (Sigma) at 260 nm.

Experimental findings from patent publication US20110262931A1 (published 2011) are described below.

B1: potato tuber carboxypeptidase inhibitor (other, UniProt P01075 1-39, looked up)
chain: QQHADPICNKPCKTHDDCSGAWFCQACWNSARTCGPYVG
notes: also called PCI
For B1, the binding result was “binds”.
